Earlier results in patent US20230312927A1, “POLY(SARCOSINE) POLYMER EXCIPIENTS” (CALUSA BIO, LLC, priority 2021, published 2023).

System: anti-drug antibodies (ADAs)
Conditions: share of anti-drug antibodies that are neutralizing; van Schie et al. Ann. Rheum. Dis. 2015

Row | Substance | ADAs shown to be neutralizing [%]
1 | adalimumab [Humira] | 97
2 | infliximab [Remicade] | 90
